Assay: soluble on expression in E. coli; label from the status in PepcDB or PDB records

Row | Sequence | soluble on expression in E. coli
1 | MDKPQEECGILGLWSEGPVDVAGLLHLGLLALQHRGQEAAGMAVTDGKAFLVEKDLGLVNQVFTEERLGKLRLPEARLGIAHTRYSTTGSNLRINAQPLTARTAHGVLAIAHNGNFTNAKLLRDRLLLEGATFQSTSDTEVMLLLLARMGHLPLPEAAAQAMRLLQGGYSILLMNRKTLLALRDPHGVRPLVLGKAPWGYAFASEPPALLLMGAEYVRDVRPGEVVWVEEGRLQSLQALPPEPAPCAFEWIYFARPDSVLDGTEAYEARVRMGMELFREAPAEADLVVPVPDSGIGAAVGYAKASGLPLEFGLYKNPYAGRTFIQPTQELRDLKTRLKLSPTGAVKGKRVVLVDDSIVRGTTSRRIVRMLKEAGALEVHFRVSSPPIRFPCYYGIDTAARKELIAAEKSVEEIQAYIGADSLAFLSEEGVKRAIGRPVCLACFNGRYPAGVPEEGEKLALELL | soluble
2 | MDLKGGESMVDWKLMQEIIEAPGVSGYEHLGIRDIVVDVLKEVADEVKVDKLGNVIAHFKGSSPRIMVAAHMDKIGVMVNHIDKDGYLHIVPIGGVLPETLVAQRIRFFTEKGERYGVVGVLPPHLRRGQEDKGSKIDWDQIVVDVGASSKEEAEEMGFRVGTVGEFAPNFTRLNEHRFATPYLDDRICLYAMIEAARQLGDHEADIYIVGSVQEEVGLRGARVASYAINPEVGIAMDVTFAKQPHDKGKIVPELGKGPVMDVGPNINPKLRAFADEVAKKYEIPLQVEPSPRPTGTDANVMQINREGVATAVLSIPIRYMHSQVELADARDVDNTIKLAKALLEELKPMDFTP | soluble
3 | MDLLSLKTVTTLSDCVTIAEQDQVKIVRVIHDKASAAISLHGGHVLSFQPKGQADLLWMSSQAIYDGKAALRGGIPVCWPWFGRIAAPAHGFARNQEWKLIEHREIEQGVIVTLGLQATPESLAIWPYQFDVRLHVEIRESLTVTLDVTNTDSKAWTFSGALHTYLHVGDIRETQTSGVGTEYIDSLQNSRLCTQHGLLTLTDTIDRVYTQPEPLITVQDPALARTLTVENQGHNSAVLWNPWQQGAQSMADMNDEGYLHFLCVESTLHAPSLAEGITLQPGQNHQLVTQITSQAQ | not soluble
4 | MDLPVMPPVKPMLAKSVAKIPPGMHYEAKWDGFRAIVYRDGDEVELGSRTGKPLTRYFPELVVAVRERLPERCVVDGEIVIARDGHLDFDALTERIHPADSRVRTLAERTPASLVAFDLLALDDASLLDVGLADRRALLVRALSGVTPPVHVAPATDDIEVARRWFEQYEGAGLDGVVAKPLDLRYRQDERAMYKIKHERTADVVVAGYRFHKSGPVVGSLLLGLYDDRGLLQHVGVSAAFTMKRRAELVAELEPLRMDDARGHPWAAWAEEAAHESARLPGAPSRWSGKKDLSWVPLRPERVVEVAYDHMENGARFRHTARFRRWRPDRTPESCTYAQLEEPVRYDLAEILGGPLEHHHHHH | not soluble
5 | MDLSQLTPRRPYLLRAFYEWLLDNQLTPHLVVDVTLPGVQVPMEYARDGQIVLNIAPRAVGNLELANDEVRFNARFGGIPRQVSVPLAAVLAIYARENGAGTMFEPEAAYDEDTSIMN | soluble
6 | MDMERNRLYFFYKRDDKLIERVKPLIELAERGPFVVVDDYREANIIVSIGDDGAFLQAVRQTGFLPDRLYVGVSVLPARGFYCDFHIDDIDHMVEAAKNWKLEVRRYPIIEVTIDGAASFFCLNECSIRSQIIKTMAIDVFIDDLHFETFRGDGIIVSTPTGSTGYNKSVHGAVVDPLLPCFQVSELASLNSNRYRTLGSPFILSGSRTLTLKMSEETSHFPIIGLDNEALSIQHIERIDIRLSDRVVKTVRLKDNSFWDKVKRVFL | not soluble
7 | MDMPVDPNEPTYCLCHQVSYGEMIGCDNPDCSIEWFHFACVGLTTKPRGKWFCPRCSQER | soluble
8 | MDMTDMTTTGSATEAATAAASSTPLPTFGQSLTEQLTPILGDAETQQLASLIAHLPTIKGQTDEQSIALYVDTLTQLKEKNSVFSGAALSESASIWMRSLQRVSSNGKMDSAELATQMNNALASQFQTWFADQLTDKVDSSLPTQFVSQFQLGTESTQAQQIAKLSAEELKSATGDIASFVDDLARQMSSSVVRESASSFLRNAFAHLPSMNLAQLKASDFLLTEANFVTNVSTQLQNVFKQIGITLTKDVADELAKRITWTPGISKQQLSEVLSEMATQVKGQFTAAYGETAGTENLRKALDAIIKSSDSLTLSSLFANFAVSLIHTEIDAFYNDKAIADIQKTQISADQAELIKNNTERDIRFQFEKMLKGESTGASFIERYETLRKNL | not soluble
9 | MDNKTYEISSAEWEVMNIIWMKKYASANNIIEEIQMQKDWSPKTIRTLITRLYKKGFIDRKKDNKIFQYYSLVEESDIKYKTSKNFINKVYKGGFNSLVLNFVEKEDLSQDEIEELRNILNKK | soluble
